Results published in article PMC2605266 (2008).

How the values were obtained:
[1] = target: GST fused to the cytosolic domain of VAMP2 (Rattus norvegicus (Rat), UniProt P63045); assay: GST pull-down, immunoblot
[2] = target: GST-VAMP2 harbouring only the SNARE motif (VAMP2 lacking the first 30 amino acids) (Rattus norvegicus (Rat), UniProt P63045); assay: GST pull-down, immunoblot
Sequence of GST-VAMP2 harbouring only the SNARE motif (VAMP2 lacking the first 30 amino acids) (P63045 31-92): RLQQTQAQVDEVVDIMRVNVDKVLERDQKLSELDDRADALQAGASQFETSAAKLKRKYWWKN

Sequence of GST fused to the cytosolic domain of VAMP2 (P63045 1-92): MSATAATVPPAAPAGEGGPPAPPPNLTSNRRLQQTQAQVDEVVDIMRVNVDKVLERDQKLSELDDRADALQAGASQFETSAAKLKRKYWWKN

B1: Munc18c, N-terminal His6-fusion protein (protein)
chain: MAPPVSERGLKSVVWRKIKTAVFDDCRKEGEWKIMLLDEFTTKLLSSCCKMTDLLEEGITVIENIYKNREPVRQMKALYFISPTPKSVDCFLRDFGSKSEKKYKAAYIYFTDFCPDSLFNKIKASCSKSIRRCKEINISFIPQESQVYTLDVPDAFYYCYSPDPSNASRKEVVMEAMAEQIVTVCATLDENPGVRYKSKPLDNASKLAQLVEKKLEDYYKIDEKGLIKGKTQSQLLIIDRGFDPVSTVLHELTFQAMAYDLLPIENDTYKYKTDGKEKEAVLEEDDDLWVRVRHRHIAVVLEEIPKLMKEISSTKKATEGKTSLSALTQLMKKMPHFRKQISKQVVHLNLAEDCMNKFKLNIEKLCKTEQDLALGTDAEGQRVKDSMLVLLPVLLNKNHDNCDKIRAVLLYIFGINGTTEENLDRLIHNVKIEDDSDMIRNWSHLGVPIVPPSQQAKPLRKDRSAEETFQLSRWTPFIKDIMEDAIDNRLDSKEWPYCSRCPAVWNGSGAVSARQKPRTNYLELDRKNGSRLIIFVIGGITYSEMRCAYEVSQAHKSCEVIIGSTHILTPRKLLDDIKMLNKSKDKVSFKDE
Question: What does the source list for B1?
Answer: binding result [1]: binds; binding result [2]: binds
